In publication PMC6412877, “Novel Site-Specific Fatty Chain-Modified GLP-1 Receptor Agonist with Potent Antidiabetic Effects” (Molecules, 2019):

Target: Glucagon-like peptide-1 receptor extracellular domain
Assay: SPR; Biacore 8K, according to the user's manual; who was immobilised and the conditions are not stated

| Binder | Kd |
| --- | --- |
| KEYSSPAATQRF [PEP02] | 1.05 µM |
| FTSEGTSSYLETGGPSSGAPPPS [PEP10] | 3 µM |
| EFIATAWLVKQTGGPSSGAPPPS [PEP12] | 1.09 µM |
| YSHAYLEETQRFGGPSSGAPPPS [PEP11] | 1.25 µM |
| FFYSSPSAYLET [PEP01] | 0.74 µM |
| FFYSSPSAYLETGGPSSGAPPPS [PEP07] | 0.024 µM |
| YSHAYLEETQRF [PEP05] | 2.21 µM |
| EFIATAWLVKQT [PEP06] | 2.59 µM |
| KQYSSPTAWLVG [PEP03] | 1.75 µM |
| KEYSSPAATQRFGGPSSGAPPPS [PEP08] | 0.151 µM |
| FTSEGTSSYLET [PEP04] | 3.99 µM |
